Assay results taken from a protein production outcome set (Wang et al. 2014).

Assay: label from the status in PepcDB records
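Note: failed if final PepcDB status was selected cloned or expressed and not failed if soluble or beyond.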

For “YRQSQSRAARLRLLVDTGQELIQLPPEAMRKCVLQRACAFVAMDHGLLLEWGADNGVQTTARHGSKERLSTLETTADPLAIGPQWLERPGTHLPCVLLLPLRGADEGSFGTLVLANSVAISAPDGEDIESLQLLATLLAAHLENNRLLEALVARDRT”, the protein production was “not failed”.

For “MSQAIPSSRVGVKINEWYKMIRQFSVPDAEILKAEVEQDIQQMEEDQDLLIYYSLMCFRHQLMLDYLEPGKTYGNRPTVTELLETIETPQKKLTGLLKYYSLFFRGMYEFDQKEYVEAIGYYREAEKELPFVSDDIEKAEFHFKVAEAYYHMKQTHVSMYHILQALDIYQNHPLYSIRTIQSLFVIAGNYDDFKHYDKALPHLEAALELAMDIQNDRFIAISLLNIANSYDRSGDDQMAVEHFQKAAKVSREKVPDLLPKVLFGLSWTLCKAGQTQKAFQFIEEGLDHITARSHKFYKELFLFLQAVYKETVDERKIHDLLSYFEKKNLHAYIEACARSAAAVFESSCHFEQAAAFYRKVLKAQEDILKGRVFICLLRKKVMMCLAVTLVFGSMSFPTLTNSGGFKESTDRNTTYIDHSPYKLSDQKKALS”, the protein production was “failed”.

In the case of “MESVAFIQWCLEHLNYWTITLLMTIESSFIPFPSEVIIPPAAYKAAVNDELNIYLVVLFATIGADIGALINYYLAKWLGRPIIYKFANSRIGHMCLIDEAKVQHAESYFDKHGALSTFIGRLIPAVRQLISIPAGLARMKMHTFLLYTTIGAGLWNTILAVIGYYLSTVPGIESEEQLIAKVTEYSHEIGYCFIAIGIFIVGFLVYKGMKKK”, the protein production is reported as “failed”.

In the case of “MGLKGYSVGEGGGEIVEVQGGHIIRATGRKDRHSKVFTSKGPRDRRVRLSAHTAIQFYDVQDRLGYDRPSKAVDWLIKKAKTAIDKLELGETTTTTTRQEPVNTKPESPTLVFQRENNDQTQFVAANLDPEDAMKTFFPATTTTNGGGGTNINFQNYPHQDDNNMVSRTTTPPPNLSQDLGLSLHPFQGNNNTVVVPETNNFTTTHFDTFGRISGWNHHDLTMTSSSSSEHQQQEQEERSNGGFMVNHHPHHHHHQPSMMTLLNSQQQQVFLGGQQQQQQRGTLQSSLFPHSFRSWDHHQTTSDHHHHQNQASSMFASSSQYGSHGMMMMQGLSFPNTTRLLHGEEATQPNSSSSPPNSHL”, the protein production is reported as “failed”.

With “MNQTKTTDDNNNNSKPDETESTTTVPEWITETINGGSFHHVDLETGTNGWASPPGNVFSLRSNNYFTTKQKSPGGDYLLSLIAVDWLKSTTKKLDHILCRPDNRVIHALETSQSRSFIFAVNFQIPGKEHYHLVLYFATEKPIPSDSILHKFINIDDDSFRNERFKVVTNVVKGPWVVKATAGKLGAFLAGKVVKCSYYRGANYFEVDVDFSISAIYSALVRLTLGYVTNLVADVGFVVEAQTEEELPERLIGGGRVCYMELSSAFLVDDGKKMGAAEGNHSEDEI” the protein production was “failed”.

For “MSCRHGTTRCRSLCDYGGLSMQYVNTCPVLNVEECDRLSFMPYLFGTDFMLAELQVYALAKKWMPGYEGGFWHFIRLPEGGGYMMPDCGRVHLVSSENWFDRTVSADAAGIILTSLAINRRLAAHHDSSNPALTRLYMLRDAQLWNHITFHPECSAIYAALD”, the protein production was “failed”.

With “MTSTSITAVEYQSKRLESRLLKETREYVIALPEGYAQSLEAYPVVYLLDGEDQFDHMASLLQFLSQGTMPQIPKVIIVGIHNTNRMRDYTPTHTLVLPSGNKGNPQYQHTGGAGRFLDFIEKELAPSIESQLRTNGINVLVGHSFGGLVAMEALRTDRPLFSAYLALDTSLWFDSPHYLTLLEERVVKGDFKQKQLFMAIANNPLSPGFGVSSYHKDLNLAFADKLTKLAPKGLGFMAKYYPEETHQSVSHIGLYDGIRHLFKDFAIDIYSDSFSKQQVIDQYGVLSERFGHKVTPSQQYLEQLIQYSDRQQLTERKQMLEGLRQHFAKD” the protein production was “not failed”.

For “FHSYTGELKIGASVASGQQVLRPALGKFMRQYPDLKVQLNLVNRRVDFIEEGFDVVIRIGQLNDSMLIAKKLGAINRKIFASPSYLAKQGNPDKVEQLTEHQLLIMNP”, the protein production was “failed”.

For “MLTDAHCRAAKAKDKLYRINDARGLYLEVKPNGVRAWRYRFKLCGKASWFALGDYPDLSLANAREKCDEARKLVRQGINPVQNRQLTKIKREMDASNTFETIAQEWLALKSWEPVTKSRRLGMLKRVVFPSIGKLPVRTITSAHVLDILNKTVKRGAPTVAAEAKRTMSGVFELAVATLRADTDPVWPVRKALPPNKTQHKAALTSGQVGNLLNAFDSHGGHFQTQMAFRLMWLTLTRANESVQARWDEFDLANGLWKIPKERMKARREHLLPLPRQAVSILTTMQPITGQSTYVFPNRDDRHKPMSDAAFRQALKKLGWATIYSPHGTRTTGSTRLNEMGYRSDAIEAQLAHAEPNSVRRAYNHAIYMVERAEMMQHWADKLDLWKKEASDAAI”, the protein production was “failed”.

With “MPERRTVALVTLGCARNEVDSEELAGRLEADGWQLVEDAEDADVAVVNTCGFVEAAKKDSVDALLEANDLKGHGRTQAVVAVGCMAERYGKELAEALPEADGVLGFDDYTNISDRLQTILNGGIHAAHTPRDRRKLLPISPAERQSAGADVALPGHGAPEGLPEDLPEGLAPESGPRAPLRRRLDGSPVASVKLASGCDRRCSFCAIPSFRGSFISRRPSDVLGETRWLAEQGVKEVMLVSENNTSYGKDLGDIRLLETLLPELAEVDGIERVRVSYLQPAEMRPGLIDVLTSTPKIAPYFDLSFQHSAPDVLRAMRRFGDTDRFLELLDTIRSKAPQAGVRSNFIVGFPGETEADLAELERFLTGARLDAIGVFGYSDEEGTEAATYGHKLDEDVVAARLARVSRLAEELVAQRAEERVGETVHVLVESIDDEEGAVGRAEHQAPETDGQVLFTSGEGLTVGRMVEAKVVGTEGVDLVAEPLPGSLVCTEEAGR” the protein production was “failed”.

With “MSLSEYRRKRSFDKTREPEPGKTLPPGQRAIFVVQLHHASRRHYDFRLQVGDALKSWAVPKGPSYDPKVKRMAVEVEDHPVDYASFEGEIPRGEYGGGHVAQFDHGVWATAGDPEAQLAKGHLRFELFGNKLKGGWHLVRSGKPARQPQWLLFKEDDAYAGTLEADDLLADVAATPADDVRRAGAGKTQRKGLTTVPPPAAKKRGTWAKQALALSGARRAEMEDAPFAPQLAKLVQSPPEGAQWLHEIKWDGYRILATVTNGKVRLWSRNALEWTDKTPEIADAIQSLGLRNAQIDGELIAGRGTKEDFNLLQATLSGERQVPLALAVFDLLHVDGVDISEAPLRERKQLLQQVLQAAPHMHLAYSSHVEGDGTEAFRVAGEQHFEGIISKRADRPYRDGRSDDWRKTKQLASQEYAVVGYTAPKGSRSGFGSLLLATPDPVHGWLYVGRVGSGFSDALMREVTQQLEGGGRKPTAHIPTPDTDLRGATWFAPRFVVEVFYRGIGGQQLLRQASFKALRPDKRIADLADSDAGNGRSTSSSTQRSAKTRAAKNAATQVAKRAATRATAPARKSAVATPSSAALPTLSSPTKLIYPDIRATKGDVWDYYQAVMDHLLPQIVGRPLSIIRCPSGAEKPCFFQKHHTAGLERVSSVKLTEETGTNAYYLVIEDAPGLLELVQFNALEFHPWGSHADRPDVADRVVFDLDPGPDVPFAEVKRAANDIRKLLAQLELESFLRVSGGKGLHVVVPLNPGCDWEVTKRFAKGFADALAQAEPQRFIATATKRLRNKRIFVDYLRNGRGATAVASYPLRGRPGAPVALPLAWSDLSKLQRADAFTLRDVPEKLRRRRKDPWADMDRIRQNLARWAEQDED” the protein production was “failed”.

In the case of “MTDRDSLEPISRDELQARVAAGSVLVLDVRPAMEYAAGHLPGAVSIPLDELAERLDELPSGIDIVACCRGPYCVYAYDALELLRPNGFSARRLDGGFSEWLAADLPVVRTLEHHHHHH”, the protein production is reported as “not failed”.

For “MFLDMLSLIRGQKIKLNDALQGQSSFYIQIHYQAAFDLDIASFGLDSQYRLSDERYMTFYNQPETPCQAVRLIENQNKCSRFLVDLAKLPATIQHLVLTAAIDGQNIMSQLQQVTVQILNLQLQPIAELKLDASIFDQERATMLIEIYRKEGIWRLAAIGQGFNAGLAALIQHFGGEVAEEPTAQQTTPVAPQSNIDLKKKLSLQKAEKTGNASIIDLTKKSLVQLEKKKLLGVTARVALVLDASGSMDGQYRRGDVQKVVNRLMPLAIHFDDDGSFECWAFAAETTQLDDVTLSNVNDFINSTQRGWKNWQVGARYNEEIPAIEAVINYFQKFQDQIPTYVLFISDGGVGSRRQMQKILSQAAKLPIFWQFVGIGGRNYGALEKLDEMSGRIVDNCNFFSLDRIDGVSDERLYELLLQEFPDWLIAARQHQIVRN”, the protein production was “failed”.

For “MKNIKIMRLVTGEDIIGNISESQGLITIKKAFVIIPMQATPGKPVQLVLSPWQPYTDDKEIVIDDSKVITITSPKDDIIKSYESHTSEIITPSGLITET”, the protein production was “not failed”.

With “MALPDRRAEGVAASLAGALIPAFLAAQDRIIEMVPFRTSATLFAFVLTIVFLAFALRVLFSFRDVRSAAVETALFATGFLYVPLLLTHLAWLRALPDGVGWIFLVLVIVMSGDTAAYYVGSNLGRRKLYPSVSPNKSVEGAIGGLLGSLAGTFVARLTFFPGLTVLDCIATALLLGVLGQVGDLFESLLKRSFGVKDSGTIVPGHGGILDRLDSILFAVPAAYYYALFVFMNR” the protein production was “failed”.

In the case of “MIDSQFQFTVLTPTYNRAVTLHRVFQSLQRQTCRDFEWVVVDDGSTDNTHEVVRAWQAQADFPIRYVWQHNQHKKTAFNRGVREARGMLVVGLDSDDEIPPDALAILKDAWEGIPADRRETYVAVTGLCARPDGSIVGDRFPQDVFDSTAVDMYFRYRVQGEKFGAMRADVLRRFPFPEDVAGFVPESLVWWAISRAGYLSRFINRVVRVYHDTPGGLSQGGVSLSSNIQGLYLLAWDMLQHHLDWFRYRPREFIMAAARYTRFRLHLDNSGLPTAVQAYRLTQPSARLLVLLMWPLGYLLYRRDRRRGVA”, the protein production is reported as “failed”.

For “MPKSVRAENISRILKRIMKSPVSRVELAEELGLTKTTVGEIAKIFLEKGIVVEEKDSPKGVGRPTKSLKISPNCAYVLGIEVTRDEIAACLIDASMNILAHEAHPLPSQSDREETLNVMYRIIDRAKDMMEKLGSKLSALTVAAPGPIDTERGIIIDPRNFPLSQIPLANLLKEKYGIEVWVENDADMGAVGEKWYTKRDDSFAWILTGKGIGAGIIIDGELYRGENGYAGEIGYTRVFNGNEYVFLEDVCNENVVLKHVLSMGFSSLAEARDSGDVRVKEYFDDIARYFSIGLLNLIHLFGISKIVIGGFFKELGENFLKKIKIEVETHLLYKHSVDMSFSKVQEPVIAFGAAVHALENYLERVTTS”, the protein production was “not failed”.

In the case of “MFKVGPIGSKQYYDKSWEEKGRNMISIFGILVHDGHVKANIQVRLNDDEYVTGLSGIFWERKVTSLTFHTNQGKHGPFCNGTGYSSSYMADYKKEIDVKIRDRREFGGFFGSFDDEFDGLTSIGIYVYPTYDNKPTLNQAWDPLYAFAHNQIPTIADGIPVMHIRYKPKLKDRIFSKLDFKRAMLCLIKVFLD”, the protein production is reported as “failed”.

For “MGSQGGIVSIDAKIDASVMIGKDAVVFPDANIAERACIAEKVCIGNAVRIGKHAMIDHGASIGDRSNIGERSRIYQDSFIGENAVIAARACIGEKVYIGNFVSLAKDSIIDDGVNIGERSSIGERTRIRQGSFIRKGCVIRQRSVIAKRAYIDEGVYIGNVVRILEHHHHHH”, the protein production was “failed”.

In the case of “MSEFMQRFADLRDRKAYAEIVDALPYVKLMGTSMAEDEQGELRFELPFLQRNVGNTTLPALHGGLIGGFMESAAMIHLMWNRESLEAPKIVDFSLDYLRPGRPQTLFAQCEITKQGKRVAHVLIEAWQDDRSKPVAVARAHFLLTNLEHHHHHH”, the protein production is reported as “not failed”.

For “MEILYIKGDATAPIGSGVKVITHICNDIGGWGKGFVLALSKKWKMPEEAYRQWYKSQEEFTLGAVQFVNVENKLYVANMIGQHGIYKDSKGLPPIRYDAVRQCLKEVALFTIAHKASVHMPRIGCGLAGGKWELMEQIIKEELITKEIAVTVYDL”, the protein production was “not failed”.

For “MTDLPPPFTTLAAAHRVDAVIDHSEFLAFAERADSPEEALAHLAALRTRYPDATHHCWAYRIGAAYRFGDDGEPGGTAGAPILRAIEGQGVDHVMVVVVRYYGGVKLGTGGLVRAYGGVAAECLRTAPRLDVRPRRTLQVSVPFDHLSGLYHLLGTWDAARGEETYTGAGVTLPVEVYPEDVEAFQAALRDATRGSAVVEEEE”, the protein production was “not failed”.
